Data as given in article PMC9958909, “Insight into the Structural Basis for Dual Nucleic Acid—Recognition by the Scaffold Attachment Factor B2 Protein”.
Where a chain is given by its changes, count along the chain named. Each block holds one molecule with its values, some of them ahead of it.

What was measured:
[1] = molecular target: SAFB2 SAP domain (21-70), wild type (human) (UniProt Q14151); assay: SEC; preparative size exclusion on HiLoad 16/600 SD 75 in 25 mM sodium phosphate, 150 mM NaCl, 0.02% NaN3, pH 6.5; size from calibration
[2] = molecular target: T1, SAFB2 RRM (404-485) (Homo sapiens, UniProt Q14151 404-485); assay: NMR titration; CSPs equal to A7/C7; NMR: 20 mM BisTris, 150 mM NaCl, pH 6.5, 5% D2O, 298 K (RRM plus 2 mM TCEP). EMSA: 25 mM sodium phosphate, 150 mM NaCl, 0.02% NaN3, pH 6.5, 10 mM MgCl2, 0.6 ug; details: protein: recombinant; tags: N-terminal GAM left after TEV cleavage (His6-Trx removed); blunt
[3] = molecular target: T2, SAFB2 SAP WT (21-70) (Homo sapiens, UniProt Q14151 21-70); assay: NMR titration; up to 6x DNA; fast exchange; NMR: 20 mM BisTris, 150 mM NaCl, pH 6.5, 5% D2O, 298 K (RRM plus 2 mM TCEP). EMSA: 25 mM sodium phosphate, 150 mM NaCl, 0.02% NaN3, pH 6.5, 10 mM MgCl2, 0.6 ug; details: protein: recombinant; tags: N-terminal GAM left after TEV cleavage (His6-Trx removed); blunt
T2 chain: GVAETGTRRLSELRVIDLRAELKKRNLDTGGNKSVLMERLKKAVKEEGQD

[4] = molecular target: T1, SAFB2 RRM (404-485); assay: NMR titration; significant CSPs of RNP residues; NMR: 20 mM BisTris, 150 mM NaCl, pH 6.5, 5% D2O, 298 K (RRM plus 2 mM TCEP). EMSA: 25 mM sodium phosphate, 150 mM NaCl, 0.02% NaN3, pH 6.5, 10 mM MgCl2, 0.6 ug; details: protein: recombinant; tags: N-terminal GAM left after TEV cleavage (His6-Trx removed)
[5] = molecular target: T2, SAFB2 SAP WT (21-70); assay: NMR titration; CSP as for 16mer; NMR: 20 mM BisTris, 150 mM NaCl, pH 6.5, 5% D2O, 298 K (RRM plus 2 mM TCEP). EMSA: 25 mM sodium phosphate, 150 mM NaCl, 0.02% NaN3, pH 6.5, 10 mM MgCl2, 0.6 ug; details: protein: recombinant; tags: N-terminal GAM left after TEV cleavage (His6-Trx removed); blunt
[6] = molecular target: T3, SAFB2 SAP K53A/S54A (Homo sapiens, UniProt Q14151 21-70, K53A;S54A); assay: NMR titration; 6x DNA; no significant CSPs; NMR: 20 mM BisTris, 150 mM NaCl, pH 6.5, 5% D2O, 298 K (RRM plus 2 mM TCEP). EMSA: 25 mM sodium phosphate, 150 mM NaCl, 0.02% NaN3, pH 6.5, 10 mM MgCl2, 0.6 ug; details: protein: recombinant; tags: N-terminal GAM left after TEV cleavage; blunt
T3 chain: T2 chain with K33A, S34A

[7] = molecular target: T2, SAFB2 SAP WT (21-70); assay: EMSA; 0-40 uM SAP; yeast tRNA, 10 mM MgCl2; slight preference for AT over GC; apparent micromolar affinity; NMR: 20 mM BisTris, 150 mM NaCl, pH 6.5, 5% D2O, 298 K (RRM plus 2 mM TCEP). EMSA: 25 mM sodium phosphate, 150 mM NaCl, 0.02% NaN3, pH 6.5, 10 mM MgCl2, 0.6 ug; details: protein: recombinant; tags: N-terminal GAM left after TEV cleavage (His6-Trx removed); label: 5'-6-FAM on fw strand; blunt

T1 sequence (Q14151 404-485): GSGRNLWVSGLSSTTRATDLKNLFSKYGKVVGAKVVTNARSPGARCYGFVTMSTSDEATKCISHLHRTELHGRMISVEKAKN

- stoichiometry N [1]: 2
Molecule: SAFB2 SAP domain (21-70), wild type (from UniProt Q14151 21-70) (domain or fragment)

B1: dsAT16mer (dsDNA)
DNA 1: GCGCACAATATAACGC
DNA 2: GCGTTATATTGTGCGC
- binding result [2]: binds
- binding result [3]: binds

B2: A7 (ssRNA)
RNA: AAAAAAA
- binding result [4]: binds

B3: dsAT9mer (dsDNA)
DNA 1: CAATATAAC
DNA 2: GTTATATTG
- binding result [5]: binds
- binding result [6]: no binding

B4: C7 (ssRNA)
RNA: CCCCCCC
- binding result [4]: binds

B5: dsAT13mer (dsDNA)
DNA 1: GCAATAAATACG
DNA 2: CGTATTTATTGC
- binding result [7]: binds

B6: dsGC16mer (dsDNA)
DNA 1: CGCCCCCGCGCCCGCG
DNA 2: CGCGGGCGCGGGGGCG
- binding result [2]: binds
